Test results from patent US20240141072A1 (published 2024).
Where a chain is given by its changes, count along the chain named. Values belong to the binder of their own block, whether it stands above or below them.

Biological target: T1, biotinylated human DLL3 protein expressed as a human IgG1 fusion protein (human, UniProt Q9NYJ7 27-492, limits assumed, biotinylated)
T1 sequence: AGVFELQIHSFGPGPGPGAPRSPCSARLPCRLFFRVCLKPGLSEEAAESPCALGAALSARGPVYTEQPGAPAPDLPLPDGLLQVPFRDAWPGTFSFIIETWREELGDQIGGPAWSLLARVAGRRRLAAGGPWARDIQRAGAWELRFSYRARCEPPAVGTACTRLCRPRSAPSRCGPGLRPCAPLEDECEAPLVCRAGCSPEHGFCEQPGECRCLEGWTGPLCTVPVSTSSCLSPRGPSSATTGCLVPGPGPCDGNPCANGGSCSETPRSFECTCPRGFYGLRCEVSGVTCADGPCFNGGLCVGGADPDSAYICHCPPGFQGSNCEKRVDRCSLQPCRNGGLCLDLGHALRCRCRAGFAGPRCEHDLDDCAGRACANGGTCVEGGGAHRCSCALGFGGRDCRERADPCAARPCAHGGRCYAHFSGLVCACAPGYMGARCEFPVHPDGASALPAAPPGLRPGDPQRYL
Test: Octet BLI, single 50 nM
Experimental: Using the conditioned medium with known concentrations of the anti-DLL3 trispecific proteins, the binding affinities of the anti-DLL3 trispecific proteins toward human DLL3 protein were measured using a method where biotinylated version of human DLL3 protein were expressed as a human IgG1 fusion protein, and the binding affinity measurement was carried out in an Octet instrument with streptavidin tips.

Kd: 5 nM
B1: 1F011 anti-DLL3 trispecific protein (other)
chain: EVQLVESGGGLVQPGGSLTLSCVASGSTSSINAIGWYRRAPGKQRELVAGISSDGSKVYADSVKGRFTISRDNAKNSVYLQMNSLRAEDTAVYYCYYFRTVKGSSMRYWGQGTLVTVSS
notes: not shown: linker 1808, anti-albumin sdAb, linker 1808, anti-CD3 fragment, His6 1819

Kd: 5.8 nM
B2: 1F012 anti-DLL3 trispecific protein (other)
chain: B1 chain with S27L, I34M, A60Q, V101N, K102S
notes: as for B1

Kd: 6.6 nM
B3: 2B02 anti-DLL3 trispecific protein (other)
chain: B1 chain with I34M, G35A, V101K, K102S
notes: as for B1

Kd: 9.2 nM
B4: 2F01 anti-DLL3 trispecific protein (other)
chain: B1 chain with I34M, A60S, T100L, K102S
notes: as for B1

Kd: 7.6 nM
B5: 2B03 anti-DLL3 trispecific protein (other)
chain: B1 chain with I34M, K57L, R99T, K102S
notes: as for B1

Kd: 6.8 nM
B6: 2D03 anti-DLL3 trispecific protein (other)
chain: B1 chain with S27K, I34M, K102S, S104V
notes: as for B1

Kd: 12 nM
B7: 2C01 anti-DLL3 trispecific protein (other)
chain: B1 chain with S29A, I34M, T100Y, K102S
notes: as for B1

Kd: 7.3 nM
B8: 2B012 anti-DLL3 trispecific protein (other)
chain: B1 chain with S27T, I34M, A60N, K102R
notes: as for B1

Kd: 6.8 nM
B9: 1G011 anti-DLL3 trispecific protein (other)
chain: B1 chain with I34M, G35A, R99K, K102S
notes: as for B1

Kd: 10 nM
B10: 2B01 anti-DLL3 trispecific protein (other)
chain: B1 chain with S30L, I34M, T100H, K102S
notes: as for B1

Kd: 8 nM
B11: 2A01 anti-DLL3 trispecific protein (other)
chain: B1 chain with I34M, Y59V, V101L, K102S
notes: as for B1

Kd: 10 nM
B12: 2F06 anti-DLL3 trispecific protein (other)
chain: B1 chain with I34Y, K57A, V101H, K102S
notes: as for B1

Kd: 11 nM
B13: 1G04 anti-DLL3 trispecific protein (other)
chain: B1 chain with I31T, I34M, Y59L, K102N, G103L
notes: as for B1

Kd: 10 nM
B14: 2B010 anti-DLL3 trispecific protein (other)
chain: B1 chain with I31R, I34M, V58L, A60L, K102L
notes: as for B1

Kd: 5.7 nM
B15: 2B07 anti-DLL3 trispecific protein (other)
chain: B1 chain with I34F, K102R
notes: as for B1

Kd: 6.7 nM
B16: 2C06 anti-DLL3 trispecific protein (other)
chain: B1 chain with S29N, I34M, A60K, F98Y, K102S
notes: as for B1

Kd: 6 nM
B17: 2D07 anti-DLL3 trispecific protein (other)
chain: B1 chain with I34V, S56T, A60R, K102Q
notes: as for B1

Kd: 4.1 nM
B18: 2C02 anti-DLL3 trispecific protein (other)
chain: B1 chain with I34V, A60V, K102Y
notes: as for B1

Kd: 6.6 nM
B19: 1G01 anti-DLL3 trispecific protein (other)
chain: B1 chain with I34M, G35A, D61E, K102S, S104A
notes: as for B1

Kd: 26 nM
B20: 1G06 anti-DLL3 trispecific protein (other)
chain: B1 chain with D61V, T100K, K102S, M106A
notes: as for B1

Kd: 8.2 nM
B21: 2D09 anti-DLL3 trispecific protein (other)
chain: B1 chain with S27T, I34M, V48A, A60N, K102R
notes: as for B1

Kd: 6.2 nM
B22: 2D04 anti-DLL3 trispecific protein (other)
chain: B1 chain with I34V, A60R, K102Q
notes: as for B1

Kd: 14 nM
B23: 1G05 anti-DLL3 trispecific protein (other)
chain: B1 chain with V58Y, K102T
notes: as for B1

Kd: 7.3 nM
B24: 2D010 anti-DLL3 trispecific protein (other)
chain: B1 chain with I34M, V101K, K102S
notes: as for B1

Kd: 8 nM
B25: 2F07 anti-DLL3 trispecific protein (other)
chain: B1 chain with I34V, K57S, K102S, G103T
notes: as for B1

Kd: 11 nM
B26: 2B011 anti-DLL3 trispecific protein (other)
chain: B1 chain with S27N, I34M, K57R, K102S, Y108S
notes: as for B1

Kd: 11 nM
B27: 2E06 anti-DLL3 trispecific protein (other)
chain: B1 chain with I34M, D61S, K102R
notes: as for B1

Kd: 6.2 nM
B28: 1H07 anti-DLL3 trispecific protein (other)
chain: B1 chain with I34F, A60S, K102S
notes: as for B1

Kd: 4.9 nM
B29: 2D012 anti-DLL3 trispecific protein (other)
chain: B1 chain with S27K, I34M, A60T, V101R, K102S
notes: as for B1

Kd: 8.2 nM
B30: 2A03 anti-DLL3 trispecific protein (other)
chain: B1 chain with S27T, I34M, A60G, K102S, S105A
notes: as for B1

Kd: 8.9 nM
B31: 2A05 anti-DLL3 trispecific protein (other)
chain: B1 chain with S27R, I34M, A60N, K102S, S104T
notes: as for B1

Kd: 5.7 nM
B32: 1H01 anti-DLL3 trispecific protein (other)
chain: B1 chain with I34M, G35A, V48A, G55N, V101R, K102S
notes: as for B1

Kd: 7.4 nM
B33: 2B05 anti-DLL3 trispecific protein (other)
chain: B1 chain with S27T, I34M, S56T, R99H, K102S
notes: as for B1

Kd: 4 nM
B34: 2A011 anti-DLL3 trispecific protein (other)
chain: B1 chain with A60S, T100P, K102S
notes: as for B1

Kd: 5.4 nM
B35: 2D011 anti-DLL3 trispecific protein (other)
chain: B1 chain with S27T, I34M, K102W
notes: as for B1

Kd: 8.5 nM
B36: 2E09 anti-DLL3 trispecific protein (other)
chain: B1 chain with T28V, I34M, D61S, V63A, V101L, K102S
notes: as for B1

Kd: 8.9 nM
B37: 2A06 anti-DLL3 trispecific protein (other)
chain: B1 chain with I31R, I34M, Y59T, V101R, K102S
notes: as for B1

Kd: 17 nM
B38: 2E08 anti-DLL3 trispecific protein (other)
chain: B1 chain with T28R, I34M, S53A, V101Q, K102S
notes: as for B1

Kd: 10 nM
B39: 1G09 anti-DLL3 trispecific protein (other)
chain: B1 chain with I34M, K102S, G103K
notes: as for B1

Kd: 8.3 nM
B40: 1G07 anti-DLL3 trispecific protein (other)
chain: B1 chain with I34M, Y59V, V101Y, K102S
notes: as for B1

Kd: 7.6 nM
B41: 2C010 anti-DLL3 trispecific protein (other)
chain: B1 chain with S30K, I34M, G55R, K102A
notes: as for B1

Kd: 6.1 nM
B42: 2C08 anti-DLL3 trispecific protein (other)
chain: B1 chain with S30R, I34M, A60Q, T100R, K102S
notes: as for B1

Kd: 7.7 nM
B43: 2A08 anti-DLL3 trispecific protein (other)
chain: B1 chain with S29K, I34M, A60R, V101S, K102S
notes: as for B1

Kd: 6.2 nM
B44: 2C07 anti-DLL3 trispecific protein (other)
chain: B1 chain with I34M, G35A, T100S, K102S
notes: as for B1

Kd: 6.2 nM
B45: 1H011 anti-DLL3 trispecific protein (other)
chain: B1 chain with A60N, V101Q, K102S
notes: as for B1

Kd: 8.4 nM
B46: 1H010 anti-DLL3 trispecific protein (other)
chain: B1 chain with S29R, I34M, A60N, K102S, Y108F
notes: as for B1

Kd: 10 nM
B47: 1H02 anti-DLL3 trispecific protein (other)
chain: B1 chain with T28K, I34M, V48A, D61Q, V101S, K102S
notes: as for B1

Kd: 14 nM
B48: 2D02 anti-DLL3 trispecific protein (other)
chain: B1 chain with I34L, K57L, T100I, K102S
notes: as for B1

Kd: 10 nM
B49: 2A09 anti-DLL3 trispecific protein (other)
chain: B1 chain with I31R, I34M, D54N, A60S, K102S, R107S
notes: as for B1

Kd: 9.6 nM
B50: 2F02 anti-DLL3 trispecific protein (other)
chain: B1 chain with I34V, D61G, K102S, S105Y
notes: as for B1

Kd: 6.6 nM
B51: 2D06 anti-DLL3 trispecific protein (other)
chain: B1 chain with I34M, A60S, K102S, M106S
notes: as for B1

Kd: 14 nM
B52: 1H06 anti-DLL3 trispecific protein (other)
chain: B1 chain with S27T, I34M, A60V, T100F, V101L, K102S
notes: as for B1

Kd: 17 nM
B53: 1H08 anti-DLL3 trispecific protein (other)
chain: B1 chain with S29F, I34M, Y59L, T100L, K102S
notes: as for B1

Kd: 8.3 nM
B54: 2D05 anti-DLL3 trispecific protein (other)
chain: B1 chain with S30R, I34M, V101A, K102S
notes: as for B1

Kd: 5.9 nM
B55: 2F03 anti-DLL3 trispecific protein (other)
chain: B1 chain with I34M, G35A, V48A, G55N, K102G
notes: as for B1

Kd: 6.4 nM
B56: 2C09 anti-DLL3 trispecific protein (other)
chain: EVQLVESGGGLVQPGGSLTLSCVPSGSTSNINAMGWYRRAPGKQRELPAGISSDGTKIYADSAKVPFTITRDNAKNSVYLQMNSLRAEDTAVYYCYYFRTVSGTSMRYWGQGTLVTVSS
notes: as for B1
